From US20210261685A1 (Alector, published 2021)
Changes are numbered by the printed parent chain. Each block holds one binder with its values, some of them ahead of it.

Assays:
Test in all cases: SPR, Carterra LSA, antibody immobilised
[1] = biological target: T1, cyno MerTK extracellular domain (ECD), recombinant (cynomolgus monkey, UniProt Q12866 21-505 (human entry))
T1 construct: also called cynomolgus MerTK; not shown: polyHis tag or TEVS/Thrombin/murine IgG2a Fc tag
T1 chain: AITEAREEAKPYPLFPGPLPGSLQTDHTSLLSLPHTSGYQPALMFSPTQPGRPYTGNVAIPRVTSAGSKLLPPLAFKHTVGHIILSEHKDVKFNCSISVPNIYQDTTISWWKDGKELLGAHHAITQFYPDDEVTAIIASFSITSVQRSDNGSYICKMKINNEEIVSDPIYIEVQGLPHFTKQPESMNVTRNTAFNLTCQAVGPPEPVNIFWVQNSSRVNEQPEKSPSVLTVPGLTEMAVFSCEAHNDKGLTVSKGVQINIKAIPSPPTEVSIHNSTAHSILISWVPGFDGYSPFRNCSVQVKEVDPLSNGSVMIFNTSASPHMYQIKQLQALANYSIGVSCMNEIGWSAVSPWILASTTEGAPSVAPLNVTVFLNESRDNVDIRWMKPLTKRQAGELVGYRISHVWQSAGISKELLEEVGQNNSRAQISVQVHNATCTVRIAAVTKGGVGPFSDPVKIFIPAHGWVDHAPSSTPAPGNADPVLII
Experimental: (§1) Binding kinetics of humanized and affinity-matured anti-MerTK antibodies of the present disclosure to human, murine, and cynomolgus MerTK proteins were evaluated as follows. Briefly, anti-MerTK antibodies were prepared by diluting to 10 μg/ml in 10 mM Acetate, pH 4.25 (Carterra, Salt Lake City, Utah), at 300 μl/well. A HC200M sensor chip (Carterra) was activated using the single channel flow cell with a 7-minute injection of a 1:1:1 mixture of 100 mM MES pH 5.5, 100 mM sulfo-NHS, 400 mM EDC (all reconstituted in MES pH 5.5; 100 μl of each mixed in vial immediately before running assay). After switching to the multi-channel array flow cell, the antibodies were injected over the activated chip in a 96-spot array for 15 minutes. The remaining unconjugated active groups on the chip were then blocked by injecting 1M Ethanolamine pH 8.5 (Carterra) for 7 minutes using the single channel flow cell.
(§2) Estimates of affinity were generated by injecting each analyte over the entire antibody array using the single channel flow cell. MerTK analytes were diluted to 33.3, 100, and 300 nM in running buffer, and injected in serial from lowest to highest concentration without regeneration. Two buffer blanks were run between each series (one species per series). Data were processed and analyzed using NextGenKIT high-throughput kinetics analysis software (Carterra). In these experiments, the anti-MerTK antibodies were human IgG1 isotype containing the Fc variant LALAPS.
(§3) The equilibrium dissociation constants (KD) were then calculated from the fitted association and dissociation rate constants (k-on and k-off) for anti-MerTK antibodies of the present disclosure.

[2] = biological target: T2, human MerTK extracellular domain (ECD), recombinant (human, UniProt Q12866 21-505)
T2 construct: also called huMerTK; not shown: polyHis tag or TEVS/Thrombin/murine IgG2a Fc tag
T2 sequence: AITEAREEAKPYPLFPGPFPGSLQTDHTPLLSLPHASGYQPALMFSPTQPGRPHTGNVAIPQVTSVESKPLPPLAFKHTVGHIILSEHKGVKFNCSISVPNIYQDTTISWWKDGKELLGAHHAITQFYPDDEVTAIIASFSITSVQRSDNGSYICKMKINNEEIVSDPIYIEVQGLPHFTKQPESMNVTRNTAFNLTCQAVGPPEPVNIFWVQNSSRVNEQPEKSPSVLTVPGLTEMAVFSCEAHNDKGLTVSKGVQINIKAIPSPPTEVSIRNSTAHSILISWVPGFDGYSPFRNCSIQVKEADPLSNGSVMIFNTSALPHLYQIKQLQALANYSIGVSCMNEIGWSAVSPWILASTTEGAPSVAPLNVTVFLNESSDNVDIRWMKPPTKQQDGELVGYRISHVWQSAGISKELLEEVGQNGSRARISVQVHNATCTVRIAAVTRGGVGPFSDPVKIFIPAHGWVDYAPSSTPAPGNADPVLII
Experimental: as §1, §2, §3

[3] = biological target: T3, murine MerTK extracellular domain (ECD), recombinant (mouse, UniProt Q60805 19-497)
T3 construct: also called moMerTK; mouse MerTK; not shown: polyHis tag or TEVS/Thrombin/murine IgG2a Fc tag
T3 sequence: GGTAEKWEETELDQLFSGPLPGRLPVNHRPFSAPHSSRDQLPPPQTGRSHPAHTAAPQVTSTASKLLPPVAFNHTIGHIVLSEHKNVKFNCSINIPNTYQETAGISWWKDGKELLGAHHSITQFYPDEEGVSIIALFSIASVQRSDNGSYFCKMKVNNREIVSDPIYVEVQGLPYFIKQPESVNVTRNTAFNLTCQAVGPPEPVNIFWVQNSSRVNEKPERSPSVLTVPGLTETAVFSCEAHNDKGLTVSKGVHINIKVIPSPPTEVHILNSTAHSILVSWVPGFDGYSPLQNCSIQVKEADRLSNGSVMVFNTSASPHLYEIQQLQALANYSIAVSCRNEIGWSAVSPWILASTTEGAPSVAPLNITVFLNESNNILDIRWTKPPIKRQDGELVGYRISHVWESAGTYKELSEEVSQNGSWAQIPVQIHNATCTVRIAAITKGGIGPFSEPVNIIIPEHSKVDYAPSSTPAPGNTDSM
Experimental: as §1, §2, §3

Kd [1]: 170 nM | Kd [2]: 86 nM | binding result [3]: no binding (tested: 300 nM)
B1: MTK-16.1 (antibody, V domains shown)
VH: QVQLVQSGSELKKPGASVKVSCKASGYTFTNHGMNWVRQAPGQGLEWMGWINTYTGEPTYAQGFTGRFVFSLDTSVSTAYLQISSLKAEDTAVYYCARKGVTAARYFDYWGQGTLVTVSS
VL: DIQMTQSPSSLSASVGDRVTITCKASQNVRTAVAWYQQKPGKAPKRLIYLASNRHTGVPSRFSGSGSGTEFTLTISNLQPEDFATYYCLQHWNYPLTFGGGTKVEIK

Kd [1]: 160 nM | Kd [2]: 80 nM | binding result [3]: no binding (tested: 300 nM)
B2: MTK-16.2 (antibody, V domains shown)
VH: B1 VH with Q62D, G63D, T65K
VL: B1 VL with K24R, V104L

Kd [1]: 22.5 nM | Kd [2]: 23 nM | Kd [3]: 310 nM
B3: MTK-29.8 (antibody, human IgG1, V domains shown)
VH: QVQLVQSGSELKKPGASVKVSCKASGYIFTTYGLSWVRQAPGQGLEWMGWINTYSGVPTYTDDFKGRFVFSLDTNVSTAYLQISSLKAEDTAVYYCARYTNYGVFDYWGQGTLVTVSS
VL: DIQLTQSPSFLSASVGDRVTITCRASSSVGYMHWYQQKPGKAPKLLIYATSNLAQGVPSRFSGSGSGTEFTLTISSLQPEDFATYYCQQWGSLPFTFGQGTKLEIK

Kd [1]: 4.2 nM | Kd [2]: 4.5 nM | Kd [3]: 116 nM
B4: MTK-29.10 (antibody, human IgG1, V domains shown)
VH: B3 VH with A24T, G26S, I28T, L34M, N75S
VL: EIVLTQSPATLSLSPGERATLSCRASSSVGYMHWYQQKPGQAPRLLIYATSNLASGIPARFSGSGSGTDFTLTISRLEPEDFAVYYCQQWGSLPFTFGGGTKLEIK

Kd [1]: 4.4 nM | Kd [2]: 4.4 nM | Kd [3]: 135 nM
B5: MTK-29.5 (antibody, human IgG1, V domains shown)
VH: B3 VH with T31S, N75S, S85P
VL: B3 VL

Kd [1]: 8.4 nM | Kd [2]: 7.4 nM | binding result [3]: no binding (tested: 300 nM)
B6: MTK-29.15 (antibody, human IgG1, V domains shown)
VH: B3 VH with G26S, I28T, L34M, Y54M, N75S
VL: B3 VL with L11P

Kd [1]: 11 nM | Kd [2]: 13 nM | Kd [3]: 170 nM
B7: MTK-29.13 (antibody, human IgG1, V domains shown)
VH: B3 VH with G26S, I28T, L34M, Y54A, N75S
VL: B3 VL with K38E

Kd [1]: 3.2 nM | Kd [2]: 3.6 nM | Kd [3]: 95 nM
B8: MTK-29.7 (antibody, human IgG1, V domains shown)
VH: B3 VH with G26S, I28T, L34M, T59S, G66A, N75S
VL: B3 VL

Kd [1]: 5.8 nM | Kd [2]: 5.7 nM | Kd [3]: 140 nM
B9: MTK-29.9 (antibody, human IgG1, V domains shown)
VH: B3 VH with T31S, N75S
VL: B3 VL with E69G

Kd [1]: 8.8 nM | Kd [2]: 8.6 nM | Kd [3]: 205 nM
B10: MTK-29.16 (antibody, human IgG1, V domains shown)
VH: B3 VH with T31S, I51V, N75S
VL: B3 VL with S92R

Kd [1]: 21 nM | Kd [2]: 23 nM | Kd [3]: 250 nM
B11: MTK-29.12 (antibody, human IgG1, V domains shown)
VH: B3 VH with G26S, I28T, L34M, Y54M, N75S
VL: B3 VL with S9G

Kd [1]: 7.3 nM | Kd [2]: 7.6 nM | Kd [3]: 100 nM
B12: MTK-29.14 (antibody, human IgG1, V domains shown)
VH: B3 VH with G26S, I28T, L34M, T59S, G66A, N75S
VL: B3 VL with S75F

Kd [1]: 9.9 nM | Kd [2]: 9.6 nM | Kd [3]: 170 nM
B13: MTK-29.17 (antibody, human IgG1, V domains shown)
VH: B3 VH with T31S, T61A, D62Q, D63G, K65T, N75S
VL: B3 VL with A25S
